Measured values reported in the Human Domainome abundance scans (Beltran et al. 2025).

B1: Homeobox protein SIX6, residues 134 to 184; numbered along this chain, O95475 (parent)
chain: CFKERTRHLLREWYLQDPYPNPSKKRELAQATGLTPTQVGNWFKNRRQRDR
B2: Intersectin-2, residues 1129 to 1183; numbered along this chain, Q9NZM3 (parent)
chain: VCQVIAMYDYAANNEDELSFSKGQLINVMNKDDPDWWQGEINGVTGLFPSNYVKM

Variants of: B1
Assay: abundance fitness (aPCA) (normalised: wild type 0, dead -1); higher = more abundant; growth selection in yeast, the domain comes from the species named
Settings: Homo sapiens

Abundance fitness of substitutions, site by site:
V39: W -0.896; K -0.556; S -0.934; G -0.976; R -0.882; L -0.769; I -0.096; M -0.944; Y -0.646; P -0.999; A -0.9; D -0.953; Q -0.455; T -0.99; E -0.906
Q48: T -0.411; I -0.035; S -0.092; Y 0.226; F -0.526; C -0.125; R 0.515; P -0.795; D -0.221; N 0.04; K 0.266; L -0.522; M -0.169; H 0.11; A -0.315; V -0.315; W -0.079; G -0.237
W42: F -0.649; Q -0.726; L -0.743; K -0.952; T -0.581; A -1.05; G -0.851; M -0.881; S -0.898; E -0.683; D -0.769; R -0.762; P -0.983; V -0.931
T37: M -0.249; G -0.133; R 0.084; S -0.043; V -0.076; N -0.169; P -0.673; H -0.049; L -0.197; K 0.568; Q 0.026; W -0.545; Y -0.236; I -0.1; F -0.28
K44: E -0.009; C -0.361; W -0.634; Y -0.604; S -0.282; D -0.57; P -0.957; L -0.525; M -0.204; R -0.112; F -0.438; A -0.195; V -0.543; G -0.68; I -0.37; Q -0.271; T -0.398
R47: W -0.425; A -0.635; D -0.84; N -0.613; L -0.633; F -0.501; G -0.762; I -1.01; Y -0.637; S -0.845; C -0.662; V -0.756; M -0.786; T -0.825; K -0.861; H -0.762
R49: L -0.277; W -0.594; D -0.074; S -0.334; V -0.503; M -0.489; N -0.287; C -0.376; G -0.357; T -0.213; I -0.482; K -0.203; E 0.049; H -0.889; Q 0.143; F -0.238; A -0.278
R46: M -0.344; K -0.151; A -0.17; V -0.465; T -0.055; L -0.604; Q 0.11; S -0.165; E 0.062; Y -0.505; W -0.501; F -0.522; C -0.203; I -0.845; N -0.037; D -0.728; H -0.72
N41: W -0.754; H -0.392; T -0.259; A -0.511; L -0.278; E -0.121; K 0.351; R 0.155; C -0.158; I -0.642; G -0.627; Y -0.995; M -0.38; P -1; Q -0.124; S -0.342; V -0.269
F43: K -0.881; T -0.927; Y -1.13; A -1.01; L -0.904; S -0.872; G -0.577; W -0.926; R -0.92; I -0.649; H -0.858; C -0.893; N -0.882; M -0.94; E -0.821; D -0.775
D50: F -0.585; N -0.693; V -0.881; Y -0.878; R -0.777; G -0.607; Q -0.189; T -0.153; L -1.1; K -0.474; A -0.383; M -0.417; E -0.26; C -0.73; S -0.312; P -0.862; W -0.592; H -0.605; I -0.995
R51: V -0.545; S -0.646; M -0.499; D -0.25; E -0.094; T -0.529; A -0.353; C -0.691; W -0.832; K -0.133; L -0.431
G40: P -0.783; K 0.335; C -0.279; S 0.152; L -0.615; D -0.503; T -0.175; H -0.159; M -0.533; N -0.579; R 0.127; W -0.467; F 0.225; Q -0.245; A 0.01; E -0.032; V -0.605
Q38: R -0.868; Y -0.77; T -0.676; S -0.841; L -0.826; M -0.442; D -0.626; F -0.741; V -0.87; I -0.702; E -0.301; P -0.9; W -0.742; A -0.269; H -0.878; G -0.728; N -0.467; K -0.608; C -0.798
N45: W -0.535; G -0.481; K -0.13; M -0.386; Q -0.303; A -0.378; I -0.394; F -0.712; E -0.266; R -0.062; T -0.423; L -0.401; V -0.612; C -0.39; S -0.42; H -0.123; D -0.261

Variants of: B2
Assay: as above
Settings: Homo sapiens

Abundance fitness: each site, then its substitutions
V4: G -0.041; Q -0.349; K -0.62; F -0.004; S -0.064; W -0.079; R -0.458; Y 0.032; I -0.478; T -0.079; H -0.205; E -0.405; A -0.027; D -0.511; N -0.688; L -0.297
A6: F -1.03; C -0.154; H -0.923; D -0.93; G -0.163; I -0.988
C2: D -0.041; G -0.099; W -0.122; I -0.116; E -0.3; T -0.126; L -0.223; Q -0.107; A -0.116; M -0.13; N 0.147; S -0.006; Y 0.022; F 0.023; P -0.108
Q3: Y -0.029; R -0.13; F 0.027; A -0.07; L -0.134; N -0.169; W -0.076; P -0.116; K 0.002; I -0.006; V -0.042; E 0.081; T -0.047; C -0.066; D -0.19; S 0.012; M -0.053
I5: V -0.015; S -0.134; C -0.077; N -0.186; H -0.188; P -0.531; Q -0.085; L -0.132; D -0.164; E -0.062; G -0.457; Y -0.062; A -0.121; M -0.144; T 0.023; K -0.173; R -0.147; W -0.056; F -0.022
V1: F 0.04; D -0.043; E -0.054; W -0.391; R -0.228; T 0.107; K 0.089; C -0.307; L -0.206; N -0.247; S -0.21; P -0.652; A -0.27; M -0.178; I 0.077; Y -0.453
